Experimental data reported in US20180230469A1, “METHOD OF TREATING PAIN WITH AN ANTIBODY AGAINST NETRIN-4, UNC5B OR NEOGENIN” (OSAKA UNIVERSITY, priority 2013, published 2018).
“Also recorded” adds a separate entry of the source. One block for each molecule: values may come before it.

What was measured:
SHP2 = target: T1, SHP2 (Rattus norvegicus, UniProt P41499); assay: von Frey filament test after intrathecal netrin-4 mixed with SHP inhibitor; type: in vivo; details: inhibitor 1 mM mixed with netrin-4 40 ng/μL, 10 μL intrathecal; for change in withdrawal threshold after administration of mixture with netrin-4: 12, 24 and 48 hours; for degree of reduction in withdrawal threshold at 24 hours after administration: vs netrin-4 alone
T1 construct: SHP2 is expressed in the neurons of the dorsal horn of the spinal cord; from tissue; host or cells: spinal cord of living rats (in vivo, intrathecal administration)
T1 sequence (P41499 1-593): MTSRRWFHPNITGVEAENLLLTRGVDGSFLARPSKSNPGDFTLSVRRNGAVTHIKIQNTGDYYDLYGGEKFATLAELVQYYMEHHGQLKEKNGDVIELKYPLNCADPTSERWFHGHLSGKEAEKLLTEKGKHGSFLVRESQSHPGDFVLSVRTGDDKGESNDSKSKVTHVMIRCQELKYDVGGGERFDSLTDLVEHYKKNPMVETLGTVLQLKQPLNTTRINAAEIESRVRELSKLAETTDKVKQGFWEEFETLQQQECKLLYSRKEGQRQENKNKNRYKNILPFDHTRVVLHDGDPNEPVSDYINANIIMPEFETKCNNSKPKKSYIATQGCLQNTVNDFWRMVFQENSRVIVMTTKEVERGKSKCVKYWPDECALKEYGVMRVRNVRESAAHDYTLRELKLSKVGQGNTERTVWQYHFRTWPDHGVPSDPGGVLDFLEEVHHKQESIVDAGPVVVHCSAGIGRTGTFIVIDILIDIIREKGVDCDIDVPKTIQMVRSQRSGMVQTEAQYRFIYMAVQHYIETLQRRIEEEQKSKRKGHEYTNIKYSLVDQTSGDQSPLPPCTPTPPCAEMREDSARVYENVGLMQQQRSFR
Experimental: (§1) The von Frey filament test was used to measure the response to mechanical stimuli. Before the test, a plastic case was set onto a metallic mesh, and the pain model rat was put into the plastic case and acclimated to the environment for 5 to 10 minutes until settled. A filament (Semmes-Weinstein Von Frey Anesthesiometer, Muromachi Kikai Co., Ltd.) was applied to the center of the plantar surface of the hindpaw for 3 to 5 seconds, and the threshold for hindpaw withdrawal (g) was measured. After the measurement of the withdrawal thresholds of both the paws was completed, the animal used was identified from the ear tag and then returned to a breeding cage.
(§2) A purified netrin-4 protein (R&D) was dissolved in physiological saline to give a 40 ng/μL netrin-4 solution. […] (Calbiochem), an inhibitor of SHPs, was dissolved at a concentration of 50 mM in sterilized water and kept refrigerated until use. The solution was diluted 50-fold with physiological saline before use. PTPi4 (bis(4-trifluoromethylsulfonamidophenyl)-1,4-diisopropylben zene, Protein Tyrosine Phosphatase Inhibitor IV, Calbiochem), an inhibitor of SHP2, was dissolved at a concentration of 16.4 mM in DMSO (dimethyl sulfoxide, Sigma-Aldrich) and kept refrigerated until use. The solution was diluted to a final concentration of 1 mM with physiological saline before use.
In order to clarify whether the activation of SHP2 is required for the action of netrin-4 on the potentiation of nociceptive response, it was examined whether intrathecal administration of a SHPs inhibitor, NSC87877, or a SHP2 inhibitor, PTPi4 (bis(4-trifluoromethylsulfonamidophenyl)-1,4-diisopropylben zene, Protein Tyrosine Phosphatase Inhibitor IV), would cancel the effect of intrathecal administration of netrin-4. NSC87877 (final concentration: 1 mM) or PTPi4 (final concentration: 1 mM) was mixed with netrin-4 (final concentration: 40 ng/μL , and 10 uL of the mixture was infused from the rear end of the polyethylene tube retained in the medullary cavity. The von Frey filament test was conducted at 12, 24 and 48 hours after the administration to examine the change in withdrawal threshold.

[1] = tested on: glial cells or immune cells in the spinal cord; assay: Immunostaining of Iba1, GFAP, CD3ε and CD45R in lumbar cord tissue after intrathecal netrin-4; type: in vivo, rat; details: lumbar cord tissue 48 hours after intrathecal administration, vs physiological saline
Experimental: (§3) Rat tissue fixation was performed by perfusion under deep anesthesia with intraperitoneal pentobarbital. For the fixation, 0.1 M phosphate buffer was perfused, followed by a 4% PFA solution (a solution of 4% paraformaldehyde (Nacalai Tesque) in 0.1 M phosphate buffer). After the perfusion-fixation, the lumbar enlargement of the spinal cord was dissected, immersed in a 4% PFA solution and further fixed for 6 hours. The 4% PFA solution was replaced with a solution of 30% sucrose (Nacalai Tesque) in 0.1 M phosphate buffer before incubation with agitation at 4° C. for two consecutive days. The lumbar cord tissue was embedded in OCT compound (Sakura Finetek Japan Co., Ltd.), frozen and sliced to a thickness of 20 μm with a cryostat, and the resulting section was mounted onto a slide glass (Matsunsmi Glass Ind., Ltd.). The specimen was immersed in a 5% BSA solution (a solution of 5% BSA (bovine serum albumin, Sigma-Aldrich) in 0.1 M phosphate buffer) at room temperature for 2 hours. The 5% BSA solution was replaced with a 5% BSA solution containing a primary antibody, and the reaction was allowed to proceed at 4° C. for two consecutive days. […] After washing with 0.1 M phosphate buffer 3 times, the specimen was coverslipped with a mounting medium and then observed under a fluorescence microscope. […]

male Wistar rat = assay: von Frey filament test after intrathecal administration of netrin-4 to rats; type: in vivo
Experimental: as §1, §2
In order to clarify the function of netrin-4 in the spinal cord in an in vivo setting, the change in nociceptive response after intrathecal administration of netrin-4 was examined. First, a polyethylene tube was inserted into the medullary cavity of an 8-week-old male Wistar rat. One week after the intubation, the von Frey filament test was conducted to confirm, the absence of intubation-caused motor dysfunction. Ten microliters of a netrin-4 solution (40 ng/μL) was infused from the rear end of the tube retained in the medullary cavity. Meanwhile, the same volume of physiological saline was administered to each animal of the control group. The von Frey filament test was conducted at 12, 24 and 48 hours after the administration to examine the change in withdrawal threshold.
Ten microliters of a netrin-4 solution (40 ng/μL), a 10% netrin-4 solution (4 ng/μL) , a 1% netrin-4 solution (0.4 ng/μL) or a thermally denatured netrin-4 solution (prepared by heat treatment of a netrin-4 solution (40 ng/μL) at 100° C. for 10 minutes) was administered in the same manner as in Experiment 1, and the degree of the change in withdrawal threshold from before to 24 hours after the administration was calculated.

[2] = tested on: neurons in the dorsal horn of the spinal cord (c-fos); assay: Immunostaining of c-fos in lumbar cord tissue after intrathecal netrin-4; type: in vivo, rat; details: lumbar cord tissue 48 hours after intrathecal administration, vs physiological saline
Experimental: as §3

- degree of reduction in withdrawal threshold at 24 hours after administration (SHP2): significantly curbed
Molecule: O=S(=O)(O)c1ccc2cc(N=Nc3cc(S(=O)(=O)O)c4cccnc4c3O)ccc2c1 [NSC87877]
- change in withdrawal threshold after administration of mixture with netrin-4 (SHP2): reduction in withdrawal threshold was observed in the group of administration of netrin-4 alone, but not

- degree of reduction in withdrawal threshold at 24 hours after administration (SHP2): significantly curbed
Molecule: CC(C)(c1ccc(NS(=O)(=O)C(F)(F)F)cc1)c1ccc(C(C)(C)c2ccc(NS(=O)(=O)C(F)(F)F)cc2)cc1 [PTPi4, bis(4-trifluoromethylsulfonamidophenyl)-1,4-diisopropylben zene]
- change in withdrawal threshold after administration of mixture with netrin-4 (SHP2): reduction in withdrawal threshold was observed in the group of administration of netrin-4 alone, but not

B1: netrin-4: purified netrin-4 protein (R&D) dissolved in physiological saline (protein, UniProt Q9HB63 19-628, looked up)
Netrin-4: GLSGVAGVSSRCEKACNPRMGNLALGRKLWADTTCGQNATELYCFYSENTDLTCRQPKCDKCNAAYPHLAHLPSAMADSSFRFPRTWWQSAEDVHREKIQLDLEAEFYFTHLIVMFKSPRPAAMVLDRSQDFGKTWKPYKYFATNCSATFGLEDDVVKKGAICTSKYSSPFPCTGGEVIFKALSPPYDTENPYSAKVQEQLKITNLRVQLLKRQSCPCQRNDLNEEPQHFTHYAIYDFIVKGSCFCNGHADQCIPVHGFRPVKAPGTFHMVHGKCMCKHNTAGSHCQHCAPLYNDRPWEAADGKTGAPNECRTCKCNGHADTCHFDVNVWEASGNRSGGVCDDCQHNTEGQYCQRCKPGFYRDLRRPFSAPDACKPCSCHPVGSAVLPANSVTFCDPSNGDCPCKPGVAGRRCDRCMVGYWGFGDYGCRPCDCAGSCDPITGDCISSHTDIDWYHEVPDFRPVHNKSEPAWEWEDAQGFSALLHSGKCECKEQTLGNAKAFCGMKYSYVLKIKILSAHDKGTHVEVNVKIKKVLKSTKLKIFRGKRTLYPESWTDRGCTCPILNPGLEYLVAGHEDIRTGKLIVNMKSFVQHWKPSLGRKVMDILKRECK
- cell morphology and spinal distribution of Iba1, GFAP, CD3ε and CD45R positive cells [1]: No remarkable difference
- change in withdrawal threshold (von Frey filament test) (male Wistar rat; intrathecal 10 μL of 40 ng/μL, 12, 24 and 48 hours after administration): significant reduction in the netrin-4-administered rats versus the control group at 12, 24 and 48 hours after the administration; also recorded: reduction in withdrawal threshold was observed
- degree of change in withdrawal threshold from before to 24 hours after administration (male Wistar rat; intrathecal 10 μL of 1% netrin-4 solution (0.4 ng/μL)): no significant reduction was observed
- degree of change in withdrawal threshold from before to 24 hours after administration (male Wistar rat; intrathecal 10 μL of 10% netrin-4 solution (4 ng/μL)): reduction in withdrawal threshold was observed
- number of c-fos-positive cells in the dorsal horn of the spinal cord [2]: increased as compared with that in the control group

B2: thermally denatured netrin-4: netrin-4 solution (40 ng/μL) heat-treated at 100° C. for 10 minutes (protein, UniProt Q9HB63 19-628, looked up)
Netrin-4: B1 Netrin-4
modifications: heat-denatured
notes: netrin-4 solution (40 ng/μL) heat-treated at 100° C. for 10 minutes
- degree of change in withdrawal threshold from before to 24 hours after administration (male Wistar rat; intrathecal 10 μL of 40 ng/μL solution heat-treated at 100° C. for 10 minutes): did not reduce the withdrawal threshold
